Laboratory results as given in patent US20200147177A1, “INTERLEUKIN 12 (IL12) OR DERIVATIVE THEREOF FOR USE IN THE TREATMENT OF SECONDARY DISEASE” (priority 2017, published 2020).

Legend:
NK cells = test: Functional assay of NK cells in PBMC treated or not overnight with IL12; type: cell-based, human; conditions: PBMC of traumatic-brain injured patients day 1 and day 7 and healthy controls; overnight IL-12; 5-hours functional assay; FIG. 18
Text: (i) spontaneous lysis with and without O/N treatment with IL-12 of PBMC of traumatic-brain injured patients on days 1 (d1) (n=5) and day 7(d7) (n=5) and healthy controls (HC) (n=5) and (ii) reverse ADCC with and without O/N treatment with IL-12 of PBMC of TBI on days 1 (n=6) and 7 (n=6) and HC (n=4)
EDTA-anticoagulated blood samples were withdrawn seven days after primary infection in septic patients (IBIS sepsis), or at day 1 and day 7 ICU admission in trauma patients. Peripheral blood mononuclear cells (PBMCs) were isolated by centrifugation, frozen in liquid nitrogen in a 10% DMSO solution and stored until analysis.

E. coli, S. aureus = test: Bacterial pneumonia in mice cured from infection or from trauma-hemorrhage (FIG. 17); type: in vivo
[1] = test system: lung DC, macrophages and NK cells; test: Intracellular staining of DC, macrophages and lymphocytes for cytokines during secondary pneumonia; type: in vivo, mice; conditions: IL-12 100 ng i.p.; secondary pneumonia 7 days after primary E. coli pneumonia; FIG. 11e
Description: For intracellular staining of cytokines in DC or lymphocytes, cell suspensions were obtained by mechanical and collagenase digestion of lungs collected 16 hours after injection of E. coli. Cells were cultured 4 hours in complete media with Golgi Plug, washed twice and then stained for surface markers. Fixation and permeabilization was performed following manufacturer instructions (BD Cytofix/Cytoperm kit, BD Bioscience). Anti-cytokine antibody was incubated overnight at 4° C. Cells were washed twice before FACS analysis.
Mice were treated with IL-12 (100 ng i.p., Abcam) concomitantly to the induction of the secondary pneumonia. Anti-TGFβ monoclonal antibody (1B11, 44 μg i.p. every 3 days) or isotype control IgG1 monoclonal antibody (MG1-45, Biolegend) injections were performed 3 and 6 days after primary pneumonia. TGF-β (1 μg i.p., Thermofisher) was injected once 6 days after primary pneumonia in DT-treated CD11c-DTR chimeric mice

Escherichia coli = test: Secondary E. coli pneumonia in infection-cured mice, c.f.u. in bronchoalveolar lavage; type: in vivo; conditions: IL-12 100 ng i.p. concurrent with induction of secondary pneumonia; c.f.u. from BAL 16 hours after E. coli; FIG. 4g

B1: IL-12: heterodimeric cytokine encoded by IL-12A (p35) and IL-12B (p40); Abcam, 100 ng i.p. (protein, UniProt P43431 23-215; P43432 23-335, looked up)
Interleukin-12 subunit alpha: RVIPVSGPARCLSQSRNLLKTTDDMVKTAREKLKHYSCTAEDIDHEDITRDQTSTLKTCLPLELHKNESCLATRETSSTTRGSCLPPQKTSLMMTLCLGSIYEDLKMYQTEFQAINAALQNHNHQQIILDKGMLVAIDELMQSLNHNGETLRQKPPVGEADPYRVKMKLCILLHAFSTRVVTINRVMGYLSSA
Interleukin-12 subunit beta: MWELEKDVYVVEVDWTPDAPGETVNLTCDTPEEDDITWTSDQRHGVIGSGKTLTITVKEFLDAGQYTCHKGGETLSHSHLLLHKKENGIWSTEILKNFKNKTFLKCEAPNYSGRFTCSWLVQRNMDLKFNIKSSSSSPDSRAVTCGMASLSAEKVTLDQRDYEKYSVSCQEDVTCPTAEETLPIELALEARQQNKYENYSTSFFIRDIIKPDPPKNLQMKPLKNSQVEVSWEYPDSWSTPHSYFSLKFFVRIQRKKEKMKETEEGCNQKGAFLVEKTSTEVQCKGGNVCVQAQDRYYNSSCSKWACVPCRVRS
responsiveness of NK cells to IL-12 (IFNγ+ CD107a+ NK cells) (NK cells): remain responsive
clinical recovery during bacterial pneumonia (E. coli, S. aureus): enhances clinical recovery
innate immune response during bacterial pneumonia (E. coli, S. aureus): restores innate immune response
IFN-γ production by NK cells during secondary pneumonia [1]: restored
bacterial clearance during secondary pneumonia (Escherichia coli): enhanced bacterial clearance
